The target of this test is mutant forms of RUVBL1 and RUVBL2. The experiment in a line: co-IP.

Bounds are passed on as bounds.

B1: RL-NOP58 (natural protein)
chain: MLVLFETSVGYAIFKVLNEKKLQEVDSLWKEFETPEKANKIVKLKHFEKFQDTAEALAAFTALMEGKINKQLKKVLKKIVKEAHEPLAVADAKLGGVIKEKLNLSCIHSPVVNELMRGIRSQMDGLIPGVEPREMAAMCLGLAHSLSRYRLKFSADKVDTMIVQAISLLDDLDKELNNYIMRCREWYGWHFPELGKIISDNLTYCKCLQKVGDRKNYASAKLSELLPEEVEAEVKAAAEISMGTEVSEEDICNILHLCTQVIEISEYRTQLYEYLQNRMMAIAPNVTVMVGELVGARLIAHAGSLLNLAKHAASTVQILGAEKALFRALKSRRDTPKYGLIYHASLVGQTSPKHKGKISRMLAAKTVLAIRYDAFGEDSSSAMGVENRAKLEARLRTLEDRGIRKISGTGKALAKTEKYEHKSEVKTYDPSGDSTLPTCSKKRKIEQVDKEDEITEKKAKKAKIKVKVEEEEEEKVAEEEETSVKKKKKRGKKKHIKEEPLSEEEPCTSTAIASPEKKKKKKKKRENED
With B1, the co-IP efficiency was less than 0.1%.

The record behind these values is paper PMC7826282.
